# Biological target: prostate-specific antigen (PSA) (UniProt P07288 25-261)
# Assay: electrochemical impedance spectroscopy; Apt-ADA on CD-AuNFs/rGO/SPCE; charge transfer resistance rises with PSA; PBS (detection limit measurement); binding buffer details, pH and temperature not given in the material
# Conditions: protein: commercial; hairpin
# Sequence of prostate-specific antigen (PSA) (P07288 25-261): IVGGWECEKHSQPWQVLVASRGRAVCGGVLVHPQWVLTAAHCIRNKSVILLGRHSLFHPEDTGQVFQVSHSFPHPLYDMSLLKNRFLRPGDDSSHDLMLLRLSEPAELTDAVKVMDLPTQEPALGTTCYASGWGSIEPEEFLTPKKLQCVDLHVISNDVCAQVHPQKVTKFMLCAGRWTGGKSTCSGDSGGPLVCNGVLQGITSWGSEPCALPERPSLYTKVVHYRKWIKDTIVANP
binder,measurement,value
"TTTTTAATTAAAGCTCGCCATCAAATAGCTTT (structured_DNA, 5' amino-C6 coupled to 1-adamantanecarboxylic acid) [anti-PSA aptamer-adamantane conjugate (Apt-ADA)]",binding result,binds
